Measured values published in patent US20150119342A1 (published 2015).
Where no end group is shown, it is not given here. [ ]: non-standard residue; d: D form. The star is where a group is joined. 5FAM = O=C1OC2(c3ccc(O)cc3Oc3cc(O)ccc32)c2ccc(C(=O)*)cc21; Abu = CC[C@H](N)C(=O)O

Legend:
[1] = target: T1, human cIAP1 BIR3 domain with C-terminal 6xHis-tag (human, UniProt Q13490 251-363, limits assumed); assay: fluorescence polarization, saturation binding; 2 nM probe, protein 0 to 20 µM
T1 construct: domain: BIR3
T1 sequence (Q13490 other isoform, or with tags, fused parts or gaps limits assumed): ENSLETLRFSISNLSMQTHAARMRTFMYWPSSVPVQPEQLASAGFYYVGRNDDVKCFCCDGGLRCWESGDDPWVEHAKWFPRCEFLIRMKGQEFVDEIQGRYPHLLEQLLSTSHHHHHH
Protocol: (§1) After shaking (15 min) the plate was incubated for 3 hours at room temperature. […] All experiments were performed in black, flat-bottom 96-well microplates (Greiner bio-one).

[2] = target: T2, human cIAP2 BIR3 domain with C-terminal 6xHis-tag (human, UniProt Q13489 237-349, limits assumed); assay: as above
T2 construct: domain: BIR3
T2 sequence (Q13489 other isoform, or with tags, fused parts or gaps limits assumed): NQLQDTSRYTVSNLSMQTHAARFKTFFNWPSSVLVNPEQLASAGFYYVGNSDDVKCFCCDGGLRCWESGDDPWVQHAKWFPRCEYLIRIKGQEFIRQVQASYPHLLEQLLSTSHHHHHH
Protocol: as §1

Kd [1]: 4.8 nM
Kd [2]: 23.6 nM
B1: Fluorescent-labelled Smac peptide [AbuRPF-K(5-Fam)-NH2] (peptide)
peptide: [Abu]RPFK(5FAM)-NH2
modifications: N-terminus assumed
SMILES: CC[C@H](N)C(=O)N[C@@H](CCCNC(=N)N)C(=O)N1CCC[C@H]1C(=O)N[C@@H](Cc1ccccc1)C(=O)N[C@@H](CCCCNC(=O)c1ccc2c(c1)C(=O)OC21c2ccc(O)cc2Oc2cc(O)ccc21)C(N)=O
notes: Synthetic labelled probe used in the fluorescence polarization assays; also called FITC-SMAC; fluorescently-labelled Smac peptide
